Among the targets are HLA-A*03:01; HLA-A*11:01; HLA-A*31:01; HLA-A*33:01; HLA-A*68:01.
What all share (assay): IEDB peptide-MHC binding, purified MHC/competitive/radioactivity; filed as Kd, often an IC50 or EC50 that approximates it; ≥ and ≤ were set here for values at or beyond the usual limits of such assays
The mark [1] stands for this setting: source organism: Vaccinia virus WR.
The mark [2] stands for this setting: source organism: SARS coronavirus Tor2.
[3] abbreviates: source organism: Mammarenavirus guanaritoense.
Where [4] appears, read: source organism: Mammarenavirus whitewaterense.
Setting [5] is: source organism: Vaccinia virus Copenhagen.
The mark [6] stands for this setting: source organism: Vaccinia virus.

On to LITLILSNK, for which the Kd in the assay with HLA-A*03:01 (setting [1]) stood at 20.9 nM; in the assay with HLA-A*11:01 (setting [1]) it was 19 nM; in the assay with HLA-A*31:01 (setting [1]), 2080 nM; in the assay with HLA-A*33:01 (setting [1]), 6720 nM; with HLA-A*68:01 (setting [1]) it was 32.7 nM.
As to ASCDAIMTR, the equilibrium dissociation constant (Kd) in the assay with HLA-A*03:01 (setting [2]) is 19400 nM; in the assay with HLA-A*11:01 (setting [2]), 79.4 nM; with HLA-A*31:01 (setting [2]) it was 81.3 nM; with HLA-A*33:01 (setting [2]) it was 83.5 nM; in the assay with HLA-A*68:01 (setting [2]), 1440 nM.
With DMQKFTILEY, the Kd with HLA-A*03:01 (setting [1]) is at least 53500 nM; with HLA-A*11:01 (setting [1]), 3530 nM; with HLA-A*31:01 (setting [1]), at least 70000 nM; with HLA-A*33:01 (setting [1]), at least 70000 nM; in the assay with HLA-A*68:01 (setting [1]) it was at least 24500 nM.
On to NYTRFWYINH, for which the Kd with HLA-A*03:01 (setting [3]) is 9020 nM; with HLA-A*11:01 (setting [3]), 12300 nM; with HLA-A*31:01 (setting [3]) it was 1340 nM; in the assay with HLA-A*33:01 (setting [3]), 48.8 nM; with HLA-A*68:01 (setting [3]) it was 4140 nM.
Take TIANSNIIK: the dissociation constant (Kd) in the assay with HLA-A*03:01 (setting [1]) is 655 nM; in the assay with HLA-A*11:01 (setting [1]) it was 36.8 nM; in the assay with HLA-A*31:01 (setting [1]) it was 8980 nM; with HLA-A*33:01 (setting [1]), 10900 nM; in the assay with HLA-A*68:01 (setting [1]) it was 73.1 nM.
On to AAYYFMKFR, for which the Kd was determined as 124 nM with HLA-A*03:01 (setting [2]); 47.2 nM with HLA-A*11:01 (setting [2]); 1.23 nM with HLA-A*31:01 (setting [2]); 117 nM with HLA-A*33:01 (setting [2]); 15.4 nM with HLA-A*68:01 (setting [2]).
In the case of SFKDQSKYCH, the Kd in the assay with HLA-A*03:01 (setting [4]) is at least 70000 nM; in the assay with HLA-A*11:01 (setting [4]), at least 69700 nM; in the assay with HLA-A*31:01 (setting [4]), 1160 nM; with HLA-A*33:01 (setting [4]), 8630 nM; with HLA-A*68:01 (setting [4]), at least 70100 nM.
On to LLNVTYNIK, for which the Kd was 7700 nM in the assay with HLA-A*03:01 (setting [5]); 4830 nM with HLA-A*11:01 (setting [5]); at least 77900 nM in the assay with HLA-A*31:01 (setting [5]); at least 77700 nM in the assay with HLA-A*33:01 (setting [5]); 11300 nM with HLA-A*68:01 (setting [5]).
For the sequence ELTTVFIKY, the equilibrium dissociation constant (Kd) in the assay with HLA-A*03:01 (setting [1]) stood at 269 nM; with HLA-A*11:01 (setting [1]), 6690 nM; in the assay with HLA-A*31:01 (setting [1]), 1820 nM; with HLA-A*33:01 (setting [1]), 5450 nM; with HLA-A*68:01 (setting [1]), 855 nM.
For the sequence VTSSGTIYK, the Kd with HLA-A*03:01 (setting [6]) is 8.08 nM; with HLA-A*11:01 (setting [6]), 0.595 nM; in the assay with HLA-A*31:01 (setting [6]), 0.577 nM; with HLA-A*33:01 (setting [6]) it was 10.2 nM; with HLA-A*68:01 (setting [6]), 16.8 nM.
As for LTDTIESAK, the Kd is 1070 nM in the assay with HLA-A*03:01 (setting [1]); 125 nM with HLA-A*11:01 (setting [1]); 8.11 nM with HLA-A*31:01 (setting [1]); 3.04 nM with HLA-A*33:01 (setting [1]); 25.7 nM with HLA-A*68:01 (setting [1]).
As for FFTELENKK, the Kd in the assay with HLA-A*03:01 (setting [1]) was at least 78000 nM; in the assay with HLA-A*11:01 (setting [1]), 6190 nM; with HLA-A*31:01 (setting [1]) it was at least 25700 nM; in the assay with HLA-A*33:01 (setting [1]) it was at least 30900 nM; with HLA-A*68:01 (setting [1]), 3360 nM.
The matching figures for YLSDSDNIK: 2600 nM, 8570 nM, at least 77900 nM, at least 50700 nM and 1120 nM.
The matching figures for VMNIERQDY: at least 61100 nM, 6110 nM, 3880 nM, 747 nM and 53.2 nM.
The matching figures for LSSIKSKSR: 3070 nM, 4160 nM, 755 nM, 1570 nM and 612 nM.
For KLSYGIATVR, the Kd amounted to 879 nM with HLA-A*03:01 (setting [2]); 1420 nM with HLA-A*11:01 (setting [2]); 278 nM with HLA-A*31:01 (setting [2]); 15300 nM with HLA-A*33:01 (setting [2]); 89 nM with HLA-A*68:01 (setting [2]).
On to YTYDRVDIYY, for which the Kd in the assay with HLA-A*03:01 (setting [1]) stood at 97.4 nM; in the assay with HLA-A*11:01 (setting [1]) it was 2.41 nM; in the assay with HLA-A*31:01 (setting [1]) it was 11000 nM; with HLA-A*33:01 (setting [1]) it was 1170 nM; with HLA-A*68:01 (setting [1]), 0.96 nM.
As for SLYMAISPK, the Kd was 13.6 nM with HLA-A*03:01 (setting [2]); 21.9 nM in the assay with HLA-A*11:01 (setting [2]); 1010 nM with HLA-A*31:01 (setting [2]); at least 49500 nM with HLA-A*33:01 (setting [2]); 2190 nM with HLA-A*68:01 (setting [2]).
For the sequence TSCSKNEAEK, the Kd in the assay with HLA-A*03:01 (setting [1]) was 3800 nM; in the assay with HLA-A*11:01 (setting [1]), 165 nM; with HLA-A*31:01 (setting [1]), 5740 nM; in the assay with HLA-A*33:01 (setting [1]), at least 70000 nM; in the assay with HLA-A*68:01 (setting [1]), 385 nM.
Turning to KTNDINVRR, the Kd turned out to be 112 nM in the assay with HLA-A*03:01 (setting [1]); 30.1 nM in the assay with HLA-A*11:01 (setting [1]); 2.24 nM with HLA-A*31:01 (setting [1]); 16700 nM with HLA-A*33:01 (setting [1]); 12.1 nM in the assay with HLA-A*68:01 (setting [1]).
The matching figures for FSGKSTELIR: at least 38100 nM, 17100 nM, 1920 nM, 1790 nM and 881 nM.
The matching figures for ILNKIVQLPK: 17.3 nM, 289 nM, 2070 nM, at least 70000 nM and 8300 nM.
Turning to IAEYIAGLK, the Kd with HLA-A*03:01 (setting [1]) is 63.3 nM; with HLA-A*11:01 (setting [1]), 147 nM; with HLA-A*31:01 (setting [1]) it was 8070 nM; with HLA-A*33:01 (setting [1]), 1320 nM; in the assay with HLA-A*68:01 (setting [1]) it was 1.27 nM.

For the origin of these results see the Immune Epitope Database (IEDB).
